Data reported in patent US20250339554A1 (BROAD INSTITUTE, published 2025).

Legend:
[1] = target: the molecule itself; assay: size-exclusion chromatography of purified PNMA1; self-assembly
[2] = target: the molecule itself; assay: TEM of capsids purified from E. coli; self-assembly
[3] = target: the molecule itself; assay: electron microscopy; self-assembly
[4] = target: the molecule itself; assay: SEC, iodixanol gradient and TEM of particles from HEK293 supernatant; self-assembly into capsids

Protein | binding result [2] | binding result [3] | also measured
PNMA1 (other, Self-assembling capsid protein) MAMTLLEDWCRGMDVNSQRALLVWGIPVNCDEAEIEETLQAAMPQVSYRMLGRMFWREENAKAALLELTGAVDYAAIPREMPGKGGVWKVLFKPPTSDAEFLERLHLFLAREGWTVQDVARVLGFQNPTPTPGPEMPAEMLNYILDNVIQPLVESIWYKRLTLFSGRDIPGPGEETFDPWLEHTNEVLEEWQVSDVEKRRRLMESLRGPAADVIRILKSNNPAITTAECLKALEQVFGSVESSRDAQIKFLNTYQNPGEKLSAYVIRLEPLLQKVVEKGAIDKDNVNQARLEQVIAGANHSGAIRRQLWLTGAGEGPAPNLFQLLVQIREEEAKEEEEEAEATLLQLGLEGHF |  |  | binding result [1]: binds
PNMA5 (other, Capsids were purified from E. coli) MALTLLEDWCKGMDMDPRKALLIVGIPMECSEVEIQDTVKAGLQPLCAYRVLGRMFRREDNAKAVFIELADTVNYTTLPSHIPGKGGSWEVVVKPRNPDDEFLSRLNYFLKDEGRSMTDVARALGCCSLPAESLDAEVMPQVRSPPLEPPKESMWYRKLKVFSGTASPSPGEETFEDWLEQVTEIMPIWQVSEVEKRRRLLESLRGPALSIMRVLQANNDSITVEQCLDALKQIFGDKEDFRASQFRFLQTSPKIGEKVSTFLLRLEPLLQKAVHKSPLSVRSTDMIRLKHLLARVAMTPALRGKLELLDQRGCPPNFLELMKLIRDEEEWENTEAVMKNKEKPSGRGRGASGRQARAEASVSAPQATVQARSFSDSSPQTIQGGLPPLVKRRRLLGSESTRGEDHGQATYPKAENQTPGREGPQAAGEELGNEAGAGAMSHPKPWET | binds |  | 
PNMA7B (other, Capsids were purified from E. coli; also called ZCCHC18) MASITACVGNSRQQNAPLPPWAHSMLRSLGRSLCPLVVKMAERNMKLFSGRVVPAQGKETFENWLIQVNEVLPDWSMSEEEKLKRLMKTLRGPAREVMRLLQAANPNLSVADFLRAMKLVFGESESSVTAHGKFFNTLQAQGEKASLYVIRLEVQLQNAIQAGILAEKDANQTRLQQLLLGAELNRDLRFRLKHLLRMYANKQERLPNFLELIKMIREEEDWDDAFIKRKRPKRSEPIMERAASPVAFQGAQPIAISSADCNCNVIEIDDTLDDSDEDVILVVSLYPSLTPTGAPPFRGRARPLDQVLVIDSPNNSGAQSLSTSGGSGYKNDGPGNIRRARKRKYTTRCSYCGEEGHSKETCDNESNKAQVFENLIITLQELTHTEERSKEVPGEHSDASEPQ | binds |  | 
PNMA6A (other) MAVTMLQDWCRWMGVNARRGLLILGIPEDCDDAEFQESLEAALRPMGHFTVLGKAFREEDNATAALVELDREVNYALVPREIPGTGGPWNVVFVPRCSGEEFLGLGRVFHFPEQEGQMVESVAGALGVGLRRVCWLRSIGQAVQPWVEAVRCQSLGVFSGRDQPAPGEESFEVWLDHTTEMLHVWQGVSERERRRRLLEGLRGTALQLVHALLAENPARTAQDCLAALAQVFGDNESQATIRVKCLTAQQQSGERLSAFVLRLEVLLQKAMEKEALARASADRVRLRQMLTRAHLTEPLDEALRKLRMAGRSPSFLEMLGLVRESEAWEASLARSVRAQTQEGAGARAGAQAVARASTKVEAVPGGPGREPEGLLQAGGQEAEELLQEGLKPVLEECDN |  | binds | 
PNMA7A (other, also called ZCCHC12) MASIIARVGNSRRLNAPLPPWAHSMLRSLGRSLGPIMASMADRNMKLFSGRVVPAQGEETFENWLTQVNGVLPDWNMSEEEKLKRLMKTLRGPAREVMRVLQATNPNLSVADFLRAMKLVFGESESSVTAHGKFFNTLQAQGEKASLYVIRLEVQLQNAIQAGIIAEKDANRTRLQQLLLGGELSRDLRLRLKDFLRMYANEQERLPNFLELIRMVREEEDWDDAFIKRKRPKRSESMVERAVSPVAFQGSPPIVIGSADCNVIEIDDTLDDSDEDVILVESQDPPLPSWGAPPLRDRARPQDEVLVIDSPHNSRAQFPSTSGGSGYKNNGPGEMRRARKRKHTIRCSYCGEEGHSKETCDNESDKAQVFENLIITLQELTHTEMERSRVAPGEYNDFSEPL |  | binds | 
PNMA2 (other, Self-assembling capsid protein; It was tested as particles from HEK293 supernatant (HA-tag pulldown) and as monomers and capsids assembled in vitro) MALALLEDWCRIMSVDEQKSLMVTGIPADFEEAEIQEVLQETLKSLGRYRLLGKIFRKQENANAVLLELLEDTDVSAIPSEVQGKGGVWKVIFKTPNQDTEFLERLNLFLEKEGQTVSGMFRALGQEGVSPATVPCISPELLAHLLGQAMAHAPQPLLPMRYRKLRVFSGSAVPAPEEESFEVWLEQATEIVKEWPVTEAEKKRWLAESLRGPALDLMHIVQADNPSISVEECLEAFKQVFGSLESRRTAQVRYLKTYQEEGEKVSAYVLRLETLLRRAVEKRAIPRRIADQVRLEQVMAGATLNQMLWCRLRELKDQGPPPSFLELMKVIREEEEEEASFENESIEEPEERDGYGRWNHEGDD |  |  | binding result [4]: binds
